Assay results as given in EP1117807B1.

Target: HMW protein antigen of the anti-HMW EIA
Experiment: antigen-specific EIA, control chinchilla serum IgG titer on coated antigen, second experiment

“serum of control chinchillas immunized with alum alone (antibody)” was tested, and the Anti-HMW antibody titers Log2 (Titers/100) (Log2 (Titers/100)) was less than 0.05.
